Test results from the DeepSol protein solubility set.

Assay: soluble on expression in E. coli; label from the status in PepcDB or PDB records

| Sequence | soluble on expression in E. coli |
| --- | --- |
| MSLSAELLTSRDQQNFVVRATRADDVTIDVTSEAKWSVGDEKIVKLQGTTLLPAADGETKLTIEYSGFKSEVPVKVEQAGAERAVSFKQDVMPVFMRSGCNTGSCHGAARGKDGFRLSLFGFDPNGDYDRVTRELAARRINLAVPEASLLMEKAIGSVPHTGGKLFDQDSEYYSTLLRWLETGAQRDASEPPLCEKIEIYPPKAVLEGEGAKQQFIVKGFYADGTTRDITDLAVFLTSNDNSVPVGKDGMAVAANRGEAFVMARFDTHTVGSQVIVLPKDLNYEKPAIEGNYIDKLVGAKLHKLRITPSGLCTDEEYLRRVTIDITGQLPSEEEYAEFMADQSADKRVKLVDRLLERKEFAEIWAMKWAQLLMIKSENNRVSYKSAFLYNSWLQEKIANGVPLDEMVREMLGATGGTFSNPPTNFYEIERDTLKTAENVAQVFMGIRTQCAQCHNHPFDRWTMDDYYSFAAFFAQVGRKNAEDEREGHHHHHH | not soluble |
| MGGSHHHHHHGMASALQRVSGLLSWTLSRVLWLSGLSEPGAARQPRIMEEKALEVYDLIRTIRDPEKPNTLEELEVVSESCVEVQEINEEEYLVIIRFTPTVPHCSLATLIGLCLRVKLQRCLPFKHKLEIYISEGTHSTEEDINKQINDKERVAAAMENPNLREIVEQCVLEPD | not soluble |
| MGSDKIHHHHHHMQRSPIRRSNYTPRNEKGLEGVIELQLNVVSDYLHVGSGKYDVEVMRSVSDVKRLVEDYLSGGNKRIPNNVDQYFSMVAFLMVRNKDNVVIPGSTIKGMVRSRLELSVPGSCYIVTGHSTSSSAVYKRIFNPDPNRGSDRFDVNKFPQVCPVCDLLGNMGLASRVSLSDFVMTSGKVDYVNVKGRDYEVVTKGSIFAGKVLYKSLKPVEIGMLLYGFGFVKDCNGSKVMLLGRFKFSDKRFGRVKFSLKTPIADCNKLVSDFVKQFNPRYINEEW | not soluble |
| MGSDKIHHHHHHMSHITDIAYKNWIVELKSKIRSSQVKASLAINAALIEFYWDLGKMIAEKQTAWGTKFIEQVSHDLQVEFPEMKGLSTTNLKYCRSFYLFYQNAIGQQAVAQLPVTPNVQQGVGEISQQSVDQLQHIEKQVNVFGQQFVAQIPWGHNILIFTKSKSYTEAQFYLQQTISNAWGRETLALQIKSQLFERQGKAITNFKQTLPEPLSDLAQQTLKDPYNFDFVNMAGTMKEKDLEKQLITHISKFLLELGKGFAFVGQQYHLEIAENDYYLDLLFYHIKLKCYVVIELKNTKFVPEYTGKMNFYLSAVDTLLKQDDDKPTIGILLCRDKNNIEAEFALRDINKPIGISEFSFTEILPENLKSSLPTVEELENELQHLTNDTDEN | not soluble |
| MGAQNSKRKDLKNINDEDYAHFMEKLKKHTDGKDKMTRDQFVAMFIPILGEYSSQFYFRLVKNEPQGVLLAKTILKCIDTGLGHFDQLADMLRFCFGDQKDQIMRNVVKIFCEGNKFTREDQVRLYDYFETENTKPVSELESFFSMCPLFAYCASFIFQRLLDKTGDSKMPILSDKTHLMGNIDQLVLNSHLPFDRRKNWTLLYSNMKHGQSFSQLVKCINGEGPCMIVIRSMKGRRFGFFASQGFLAGPQYRGTAECFLFQLAPKIATFDATGRTENYVYLNYQQQQHPNGLGIGGTESVWPLFIHEEFGGGTCQKNSSSFEPCHIAEEDEFKIKTIEAWRPGDKPQKSFEEQILLEERSPEKSIIDKDPEARAVLELAGKSMHSEAYRDPAPLLDGE | not soluble |
| GSSCPGKSSWPHLVGVGGSVAKAIIERQNPNVKAVILEEGTPVTKDFRCNRVRIWVNKRGLVVSPPRIG | soluble |
| MGSDKIHHHHHHMAKFDIITIEDKIQQLLEDGFDQASFIYEFLSFYDISKTAITRIRKEQSGEIKNKLYYKTVPTDKSVVAGVAEIEEAIKDKKSQPRYIIVTNFVDFAAKDTKTFDTLQIPFKDLPTYADFFLAWNGVEKVDYAKENPADIKAAERFTRLYDELKKINHFDDRSQEEKEFNLFLIRLLFLLFAEDTEIMKKGIFTNAIKTRSREDGSDLNTLFNQIFASLDIANRLSQENWLQEFPYVNGKLFTDASTDLVFDKKTRKLILEAGELLNWNEINPDILGAMIQTVASSEHRSSSGMHYTSVENIMKVIKPLFLDELTANFQTIVDKINENEDKDITERTRRENRAAYEKELSTLHEHLSKIKFFDPACGSGNFLIITYKELRRLEIRLLKALRELRQDGKIDFFETSKISLNQFYGIELDDFAHEVARLSLWIAEYQMNLEALNEINLQSAFLPLRDAGNITQGNALRLDWDKVVPHTPTDEIYLIGNPPYIGAKIAK | not soluble |
| MGSDKIHHHHHHMTAPFSTQLKRCTTCLLPETHETLVLDSEGVCNICRAQEVKAEINWEERLVHLDKLVAEYRGNYRYDCLIPFSGGKDSTWTLYYLMNRYPGIKPLVVRFNHGFLRPNLRANCDRVFRKLGVDVHDFSPSWKVVQRLMLQSFLEKGDFCWHCHTGIFAYPMQVAIKEQVPLIFWGEPSAEYTAYYNYDQAEEVDEERFNRYVNLGISAEDMLVRLDGYLDERDVEPFRYPPLKELRQLGYRSVCLGSYIPWDVKMQVGKIREELGWKGDLVENVPEDFNYEKIECWMQGVRDYIKYIKRGYTRPTHLAAIDLRNNRISKEEAKAMITQFEGRRPPSLDLFLDYVGLDEEQFYTIAMGHQVSPWQFDPDSIKSGPKTPDFEDWLRGDGLDLVDAEDQLGRWADSCSSCSSSSSCSGG | not soluble |
| GMTDAPADAPLDADARRAVKPVICYPNDSLPRPDLALYRAARASARKTGEVLVPPREGRCFEVKAGQFFRISSVEGPQVGDLNLHNLHDLTERFFSGKTRALHGTHVTTGERLWSNLPYLRPMATIIEDTLGWYGIDQYGGSVHDVIGTRCDPYTGNLLAGGHYHHCCHSNLTRALADHTGLPLHEAEMLVHDVLNVFMCTGFTRDTGQYFMKASPVRPGDYLEFFAEIDLLGNLSACPGGDCSSEHSSDTASCHPLLVEIFAPAEGMLGDWPSPSVNGYDRSHGR | soluble |
| MKRIGYARTTIIEDDLKNQLTTLQSFGCDDIFQETFDPQAEISVLDEVEKLLSAGDTLIVCKLHHLGKTTRQLTDFMKMLKEKQVDFVSISEGIDTHLPTGEAYFQLMESLSAMECALIKERTLVGLHKARENGKVGGRPKIDGRTVRKIRALYYENKETIQFISNKCGVSVGTCYKYINLPETDVERLYS | not soluble |
| MGSSHHHHHHGKTIFVIVPTNEEQVAFLEALAKQDELNFDWQNPPTEPGQPVVILIPSDMVEWFLEMLKAKGIPFTVYVEEGGSENLYFQGGGGGGRTGFNTAYSRCTYLVMMGEYKQLLEPGTFPSNDRLPPHLRLDKLSYLDLRDTEIALPPVIDVSLSNRDQVRQLEGQLPSTERSDLHVHFGPIKSQTIIMTPSSNERYVRRRLGLSEKDRKNLEAESQQAFAQARS | soluble |
| SLQETTAQEQKVGNYALGPEGLKKALAETGSHILVMDLYAKTMIKQPNVNLSNINLGSEGGELLKNIHLNQELSRINANYWLDTAKPQIQKTARNIVNYDEQFQNYYDTLVETVQKKDKAGLKEGINDLITTINTNSKEVTDVIKMLQDFKGKLYQNSTDFKNNVGGPDGKGGLTAILAGQQATIPQLQAEIEQLRATQKKHFDDVLAWSIG | soluble |
| FRELTEREEAVRESHQRISTILESITDAFFSLDHSWRFTYLNGEAERLLGRTRDDLLGKSIWEEFAAAVGTRFDVEYRRAVASGTTATFEEYYPPLACWFEVHAYPSRDGLSVFFQDIT | not soluble |
| SHEELNDQLRVRREKLKKIEELGVDPFGKRFERTHKAEELFELYGDLSKEELEEQQIEVAVAGRIMTKRGMGKAGFAHIQDVTGQIQIYVRQDDVGEQQYELFKISDLGDIVGVRGTMFKTKVGELSIKVSSYEFLTKALRPLPEKYHGLKDIEQRYRQRYLDLIMNPESKKTFITRSLIIQSMRRYLDSHGYLEVETPMMHAVAGGAAARPFITHHNALDMTLYMRIAIELHLKRLIVGGLEKVYEIGRVFRNEGISTRHNPEFTMLELYEAYADFRDIMKLTENLIAHIATEVLGTTKIQYGEHLVDLTPEWRRLHMVDAIKEYVGVDFWRQMSDEEARELAKEHGVEVAPHMTFGHIVNEFFEQKVEDKLIQPTFIYGHPVEISPLAKKNPDDPRFTDRFELFIVGREHANAFTELNDPIDQRQRFEEQLKEREQGNDEAHEMDEDFLEALEYGMPPTGGLGIGVDRLVMLLTNSPSIRDVLLFPQMRHK | soluble |
| MSLATIDSMNKDTTRLSDGPDWTFDLLDVYLAEIDRVAKLYRLDTYPHQIEVITSEQMMDAYSSVGMPINYPHWSFGKKFIETERLYKHGQQGLAYEIVINSNPCIAYLMEENTITMQALVMAHACYGHNSFFKNNYLFRSWTDASSIVDYLIFARKYITECEERYGVDEVERLLDSCHALMNYGVDRYKRPQKISLQEEKARQKSREEYLQSQVNMLWRTLPKREEEKTVAEARRYPSEPQENLLYFMEKNAPLLESWQREILRIVRKVSQYFYPQKQTQVMNEGWATFWHYTILNHLYDEGKVTERFMLEFLHSHTNVVFQPPYNSPWYSGINPYALGFAMFQDIKRICQSPTEEDKYWFPDIAGSDWLETLHFAMRDFKDESFISQFLSPKVMRDFRFFTVLDDDRHNYLEISAIHNEEGYREIRNRLSSQYNLSNLEPNIQIWNVDLRGDRSLTLRYIPHNRAPLDRGRKEVLKHVHRLWGFDVMLEQQNEDGSVELLERCPPRMGNLEGHHHHHH | soluble |
| MIEVISATALATVQDLGRHGSLGYGVGTSGAMDTLSLRLGNLLLGNAEDAAGIEIPLFPFEVRFVEDCTFAITGAACSAKLDGGRLPGNWAAQARKGQVLKLSYPTTGSRAYLCLAGGVDVPPVLGSRSTQLRGAFGGWQGRALQQGDVIPAGAANQQRAGDFGLESAVAGLPLMLDGLPAIRVLPAAEFDCFSVEAQDTFFAGEWKITTQSNRYGYRMEGTPLLAREALEIRSHGIVPGVIQVPHGGQPIVQMRDAQPSGGYPKFATVIEADLWRLGQAPIGSKVRFVQCSYEQAIEALDTNHAFIEDARRLLALRGLQGHRLEHHHHHH | not soluble |
| GSHMRRYIGVMMLTLSPSILAELQLREPSFPDVQHGVLIHKVILGSPAHRAGLRPGDVILAIGEQMVQNAEDVYEAVRTQSQLAVQIRRGRETLTLYVTPEVTEGGGWTMFWV | soluble |
| GMTSSFTDYCKFFNRILSEVQETQEQAIIKGAHLVSEAVMNGGRFYVFGSGHSHMIAEEIYNRAGGLALVTAILPPELMLHERPNKSTYLERIEGLSKSYLKLHQVTNKDVIMIISNSGRNTVPVEMAIESRNIGAKVIAMTSMKHSQKVTSRHKSGKKLYEYADVVLDNGAPVGDAGFQIANSEIYSGATSDSIGCFLAQALIVETLHLLVQQGFEPPVFKSSNVDGADLYNDKIFNEYVKW | soluble |
| MGSDKIHHHHHHSCNEDDGAPYPSVRLEFLTAESGADGRLQTLVTDKGERLVVAEDRTESELLPNSSSRVVSNYEVLSSVGGRKEIRIYALANTVSPVPLPAGEFRNGLKFDPVDMLSIWMGRDYLNMTLSIRAQNARHTFHFIQESVERDAVTGKLKVHLMLYHDDGGDVEAYAKRAYVSVPLRQYTSDIGESVIIYFSFHTYDGEVQTYQFEYVPSHLTINY | not soluble |
| MTRLTLALDVMGGDFGPSVTVPAALQALNANSQLTLLLVGNPDIITPLLAKADFEQRSRLQIIPAQSVIASDARPSQAIRASRGTSMRVALELVKEGRAEACVSAGNTGALMGLAKLLLKPLEGIERPALVTVLPHQQKGKTVVLDLGANVDCDSTMLVQFAVMGAVLAEEVVGIKNPRVALLNIGEEETKGLDSIREASLMLKTVPTINYIGYLEANELLTGKTDVLVCDGFTGNVTLKTMEGVVRMFLSLLKSQGEGKKRSWWLLLLKRWLQKSLTRRFSHLNPDQYNGACLLGLRGTVIKSHGAANQRAFAVAIEQAVQAVQRQVPQRIAARLESVYPAGFEPLDDGKGVNLRAHR | not soluble |
| EFSGSFNRQFKLNKPVIPVNTEYVTRKEFNEYKDSNDQRLTKIENKVDKLEIKVDKLEKKVDKLEVKVDKLVETVNAQGEDLNNFKVEVRGTLQSQGETLQLILQTLQGMSKRLDSVEGRLDSMDGRLDSMETRLDKID | soluble |
